Sequences and labels used below:
B1: Scaffold protein ILK (Homo sapiens), Q13418 (parent)
chain: MDDIFTQCREGNAVAVRLWLDNTENDLNQGDDHGFSPLHWACREGRSAVVEMLIMRGARINVMNRGDDTPLHLAASHGHRDIVQKLLQYKADINAVNEHGNVPLHYACFWGQDQVAEDLVANGALVSICNKYGEMPVDKAKAPLRELLRERAEKMGQNLNRIPYKDTFWKGTTRTRPRNGTLNKHSGIDFKQLNFLTKLNENHSGELWKGRWQGNDIVVKVLKVRDWSTRKSRDFNEECPRLRIFSHPNVLPVLGACQSPPAPHPTLITHWMPYGSLYNVLHEGTNFVVDQSQAVKFALDMARGMAFLHTLEPLIPRHALNSRSVMIDEDMTARISMADVKFSFQCPGRMYAPAWVAPEALQKKPEDTNRRSADMWSFAVLLWELVTREVPFADLSNMEIGMKVALEGLRPTIPPGISPHVCKLMKICMNEDPAKRPKFDMIVPILEKMQDK
partner: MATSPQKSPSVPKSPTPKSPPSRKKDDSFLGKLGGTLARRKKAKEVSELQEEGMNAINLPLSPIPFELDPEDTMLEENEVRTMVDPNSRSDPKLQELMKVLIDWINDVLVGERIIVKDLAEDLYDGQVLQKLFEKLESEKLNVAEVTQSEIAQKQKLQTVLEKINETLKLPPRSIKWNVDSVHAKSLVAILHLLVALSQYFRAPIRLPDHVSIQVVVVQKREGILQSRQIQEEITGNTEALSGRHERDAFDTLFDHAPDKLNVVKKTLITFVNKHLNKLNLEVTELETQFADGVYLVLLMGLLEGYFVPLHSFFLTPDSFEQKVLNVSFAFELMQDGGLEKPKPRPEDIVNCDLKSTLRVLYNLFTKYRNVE
B2: E3 ubiquitin-protein ligase SH3RF2 (Homo sapiens), Q8TEC5 (parent)
chain: MDDLTLLDLLECPVCFEKLDVTAKVLPCQHTFCKPCLQRVFKAHKELRCPECRTPVFSNIEALPANLLLVRLLDGVRSGQSSGRGGSFRRPGTMTLQDGRKSRTNPRRLQASPFRLVPNVRIHMDGVPRAKALCNYRGQNPGDLRFNKGDIILLRRQLDENWYQGEINGISGNFPASSVEVIKQLPQPPPLCRALYNFDLRGKDKSENQDCLTFLKDDIITVISRVDENWAEGKLGDKVGIFPILFVEPNLTARHLLEKNKGRQSSRTKNLSLVSSSSRGNTSTLRRGPGSRRKVPGQFSITTALNTLNRMVHSPSGRHMVEISTPVLISSSNPSVITQPMEKADVPSSCVGQVSTYHPAPVSPGHSTAVVSLPGSQQHLSANMFVALHSYSAHGPDELDLQKGEGVRVLGKCQDGWLRGVSLVTGRVGIFPNNYVIPIFRKTSSFPDSRSPGLYTTWTLSTSSVSSQGSISEGDPRQSRPFKSVFVPTAIVNPVRSTAGPGTLGQGSLRKGRSSMRKNGSLQRPLQSGIPTLVVGSLRRSPTMVLRPQQFQFYQPQGIPSSPSAVVVEMGSKPALTGEPALTCISRGSEAWIHSAASSLIMEDKEIPIKSEPLPKPPASAPPSILVKPENSRNGIEKQVKTVRFQNYSPPPTKHYTSHPTSGKPEQPATLKASQPEAASLGPEMTVLFAHRSGCHSGQQTDLRRKSALGKATTLVSTASGTQTVFPSK
B3: Zinc finger protein RFP (Homo sapiens), P14373 (parent)
chain: MASGSVAECLQQETTCPVCLQYFAEPMMLDCGHNICCACLARCWGTAETNVSCPQCRETFPQRHMRPNRHLANVTQLVKQLRTERPSGPGGEMGVCEKHREPLKLYCEEDQMPICVVCDRSREHRGHSVLPLEEAVEGFKEQIQNQLDHLKRVKDLKKRRRAQGEQARAELLSLTQMEREKIVWEFEQLYHSLKEHEYRLLARLEELDLAIYNSINGAITQFSCNISHLSSLIAQLEEKQQQPTRELLQDIGDTLSRAERIRIPEPWITPPDLQEKIHIFAQKCLFLTESLKQFTEKMQSDMEKIQELREAQLYSVDVTLDPDTAYPSLILSDNLRQVRYSYLQQDLPDNPERFNLFPCVLGSPCFIAGRHYWEVEVGDKAKWTIGVCEDSVCRKGGVTSAPQNGFWAVSLWYGKEYWALTSPMTALPLRTPLQRVGIFLDYDAGEVSFYNVTERCHTFTFSHATFCGPVRPYFSLSYSGGKSAAPLIICPMSGIDGFSGHVGNHGHSMETSP

The variants in the first test derive from B1. The note with it: with parva_human PARVA.
Regarding L314H, the “effect of a mutation on the interaction” value was “with no effect”.
For the variant M425I, the “effect of a mutation on the interaction” value was “with no effect”.
As to K223N, the “effect of a mutation on the interaction” value was “disrupting interaction strength”.
The same measure, in the same setting: with Y278H the entry was “disrupting interaction strength”.
Regarding R46H, the “effect of a mutation on the interaction” value was “with no effect”.
Still for that read-out and setting: the result for A262V reads “with no effect”; that for V340G, “with no effect”.

Another test covers variants of B2. Particulars: with rbpms_human RBPMS.
Turning to V687I, the “effect of a mutation on the interaction” value is reported as “with no effect”.

The next test covers variants of B2. The note with it: with amol2_human AMOTL2, Q9Y2J4.
amol2_human AMOTL2, Q9Y2J4, sequence (Q9Y2J4 whole entry): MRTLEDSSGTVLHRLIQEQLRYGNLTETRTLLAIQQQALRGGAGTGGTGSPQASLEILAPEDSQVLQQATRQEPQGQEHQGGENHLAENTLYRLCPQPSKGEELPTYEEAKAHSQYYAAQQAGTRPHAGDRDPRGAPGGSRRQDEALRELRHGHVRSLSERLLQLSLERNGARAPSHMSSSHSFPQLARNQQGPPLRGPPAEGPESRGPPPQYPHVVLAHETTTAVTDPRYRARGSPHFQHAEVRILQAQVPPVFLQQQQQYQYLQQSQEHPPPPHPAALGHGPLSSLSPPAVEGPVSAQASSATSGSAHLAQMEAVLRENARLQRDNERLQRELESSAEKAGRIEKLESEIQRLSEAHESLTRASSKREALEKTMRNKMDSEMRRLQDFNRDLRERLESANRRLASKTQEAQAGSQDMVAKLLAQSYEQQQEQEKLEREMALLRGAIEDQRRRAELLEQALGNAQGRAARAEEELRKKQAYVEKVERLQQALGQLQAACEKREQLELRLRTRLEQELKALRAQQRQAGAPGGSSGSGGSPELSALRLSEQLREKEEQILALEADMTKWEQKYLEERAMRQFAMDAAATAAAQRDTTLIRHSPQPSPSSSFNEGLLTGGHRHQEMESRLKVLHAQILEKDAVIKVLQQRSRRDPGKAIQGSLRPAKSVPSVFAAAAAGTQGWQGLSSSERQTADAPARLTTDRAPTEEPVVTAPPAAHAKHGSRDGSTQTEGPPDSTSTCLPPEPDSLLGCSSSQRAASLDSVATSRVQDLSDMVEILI
For the variant V687I, the “effect of a mutation on the interaction” value is listed as “with no effect”.

Another test covers variants of B2. The note with it: with mtus2_human MTUS2, Q5JR59.
mtus2_human MTUS2, Q5JR59, sequence (Q5JR59 whole entry): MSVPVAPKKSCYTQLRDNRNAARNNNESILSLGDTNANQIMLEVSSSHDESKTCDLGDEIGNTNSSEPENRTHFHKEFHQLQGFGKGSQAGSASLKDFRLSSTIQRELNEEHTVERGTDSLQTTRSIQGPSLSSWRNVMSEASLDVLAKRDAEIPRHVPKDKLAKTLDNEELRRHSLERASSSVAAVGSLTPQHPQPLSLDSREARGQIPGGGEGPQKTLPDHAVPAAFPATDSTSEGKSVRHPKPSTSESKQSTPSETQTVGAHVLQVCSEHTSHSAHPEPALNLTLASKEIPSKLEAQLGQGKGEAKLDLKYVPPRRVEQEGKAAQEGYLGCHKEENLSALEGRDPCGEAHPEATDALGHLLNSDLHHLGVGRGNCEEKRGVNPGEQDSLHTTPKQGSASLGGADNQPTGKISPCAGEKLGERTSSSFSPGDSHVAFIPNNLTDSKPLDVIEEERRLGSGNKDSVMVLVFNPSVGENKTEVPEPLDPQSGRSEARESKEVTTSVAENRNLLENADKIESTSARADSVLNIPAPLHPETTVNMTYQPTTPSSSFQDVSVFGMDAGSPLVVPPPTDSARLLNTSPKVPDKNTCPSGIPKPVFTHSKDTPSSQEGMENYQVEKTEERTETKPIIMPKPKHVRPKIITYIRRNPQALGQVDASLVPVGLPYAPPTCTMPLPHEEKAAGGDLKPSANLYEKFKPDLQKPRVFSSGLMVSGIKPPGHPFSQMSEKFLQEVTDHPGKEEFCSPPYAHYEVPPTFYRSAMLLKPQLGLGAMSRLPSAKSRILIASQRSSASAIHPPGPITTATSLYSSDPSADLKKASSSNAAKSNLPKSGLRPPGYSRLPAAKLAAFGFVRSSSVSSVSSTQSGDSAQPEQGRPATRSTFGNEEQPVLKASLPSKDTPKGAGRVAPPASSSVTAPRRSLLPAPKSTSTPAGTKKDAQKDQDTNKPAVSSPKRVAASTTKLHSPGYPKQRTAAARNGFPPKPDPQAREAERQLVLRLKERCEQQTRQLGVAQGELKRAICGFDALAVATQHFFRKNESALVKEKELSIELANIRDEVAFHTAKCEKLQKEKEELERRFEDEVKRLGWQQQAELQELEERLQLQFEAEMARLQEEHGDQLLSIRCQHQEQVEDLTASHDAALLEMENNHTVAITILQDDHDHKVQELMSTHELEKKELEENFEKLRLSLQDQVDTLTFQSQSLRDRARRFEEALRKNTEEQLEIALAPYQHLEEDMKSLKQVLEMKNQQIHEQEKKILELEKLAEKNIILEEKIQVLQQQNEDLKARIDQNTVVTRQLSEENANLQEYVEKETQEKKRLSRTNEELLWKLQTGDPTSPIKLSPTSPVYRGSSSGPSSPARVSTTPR
Regarding V687I, the “effect of a mutation on the interaction” value is “with no effect”.

The next test covers variants of B3. The note with it: with if4e_human EIF4E.
N355S: the “effect of a mutation on the interaction” value is reported as “with no effect”.

Variants of B3 are the subject of a further test. Particulars: with fhl3_human FHL3, Q13643.
fhl3_human FHL3, Q13643, sequence (Q13643 whole entry): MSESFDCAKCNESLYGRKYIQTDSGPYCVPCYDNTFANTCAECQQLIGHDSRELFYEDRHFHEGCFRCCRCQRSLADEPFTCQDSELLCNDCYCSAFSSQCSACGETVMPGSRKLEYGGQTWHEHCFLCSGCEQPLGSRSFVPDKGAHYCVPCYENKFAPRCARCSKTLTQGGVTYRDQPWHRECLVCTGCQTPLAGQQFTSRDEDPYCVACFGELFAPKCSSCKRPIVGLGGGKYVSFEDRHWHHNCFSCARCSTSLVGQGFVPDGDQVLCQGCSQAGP
Take N355S: the “effect of a mutation on the interaction” value is on record as “disrupting interaction strength”.

In another test the parent is B3. The note with it: with bmp7_human BMP7, P18075.
bmp7_human BMP7, P18075, sequence (P18075 whole entry): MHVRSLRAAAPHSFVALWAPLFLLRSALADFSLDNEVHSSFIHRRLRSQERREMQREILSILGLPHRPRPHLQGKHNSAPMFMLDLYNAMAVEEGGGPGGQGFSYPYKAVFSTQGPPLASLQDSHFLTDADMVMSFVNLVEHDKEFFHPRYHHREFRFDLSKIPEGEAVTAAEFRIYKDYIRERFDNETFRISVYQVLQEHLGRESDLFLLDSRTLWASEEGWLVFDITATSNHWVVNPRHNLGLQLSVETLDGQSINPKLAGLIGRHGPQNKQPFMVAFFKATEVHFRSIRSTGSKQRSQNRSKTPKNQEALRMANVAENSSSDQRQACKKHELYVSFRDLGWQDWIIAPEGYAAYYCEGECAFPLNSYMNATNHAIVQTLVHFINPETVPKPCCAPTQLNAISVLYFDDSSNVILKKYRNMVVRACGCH
As to N355S, the “effect of a mutation on the interaction” value was “with no effect”.

In the next test the parent is B3. The note with it: with ercc3_human ERCC3, P19447.
ercc3_human ERCC3, P19447, sequence (P19447 whole entry): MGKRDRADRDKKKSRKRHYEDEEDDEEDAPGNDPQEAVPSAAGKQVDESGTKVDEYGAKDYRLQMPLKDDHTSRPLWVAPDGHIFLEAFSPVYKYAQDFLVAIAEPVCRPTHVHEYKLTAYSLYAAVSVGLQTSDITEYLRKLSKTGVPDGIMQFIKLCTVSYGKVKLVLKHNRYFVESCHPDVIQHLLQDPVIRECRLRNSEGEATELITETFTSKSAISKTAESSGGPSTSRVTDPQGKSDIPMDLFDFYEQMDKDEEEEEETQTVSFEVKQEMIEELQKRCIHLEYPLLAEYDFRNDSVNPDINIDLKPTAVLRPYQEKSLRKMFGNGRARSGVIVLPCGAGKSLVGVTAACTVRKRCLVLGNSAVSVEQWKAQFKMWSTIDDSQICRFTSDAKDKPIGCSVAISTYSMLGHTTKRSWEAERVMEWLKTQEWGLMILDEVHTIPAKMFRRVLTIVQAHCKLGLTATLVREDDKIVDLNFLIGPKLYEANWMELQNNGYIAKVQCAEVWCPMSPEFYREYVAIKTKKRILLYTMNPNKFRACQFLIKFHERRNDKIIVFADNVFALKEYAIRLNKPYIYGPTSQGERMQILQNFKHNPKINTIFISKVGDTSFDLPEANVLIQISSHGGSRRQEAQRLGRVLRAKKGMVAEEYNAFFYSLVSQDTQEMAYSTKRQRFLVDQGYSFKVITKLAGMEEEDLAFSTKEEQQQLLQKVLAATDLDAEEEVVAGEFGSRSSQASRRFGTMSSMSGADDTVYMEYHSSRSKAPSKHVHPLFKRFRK
In the case of N355S, the “effect of a mutation on the interaction” value is “with no effect”.

The record behind these values is IntAct's records for PubMed 31515488.
